11 molecules from patent US20120021972A1 (CADILA HEALTHCARE, published 2012) can be followed below.

B1: Seq. ID. No. 5: HSQGTFTSD-Bip(OMe)-(APPA) (peptide)
peptide: H-HSQGTFTSD[Bip(2'-Et-4'-OMe)][hhPhe]-NH2
B2: Seq. ID. No. 132: H-Aib-(CNB)-G-T(allo)-(α-Me-2F-Phe)-T(allo)-SD-Bip(OMe)-((NMe)(2F-APPA)) (peptide)
peptide: H[Aib][CNB]G[aThr][αMePhe(2-F)][aThr]SD[Bip(2'-Et-4'-OMe)][NMe2F‑APPA]
modifications: reading uncertain
B3: Seq. ID. No. 78: H-Aib-(CNB)-GTFTSD-Bip(OMe)-(2,4-diF-APPA) (peptide)
peptide: H[Aib][CNB]GTFTSD[Bip(2'-Et-4'-OMe)][2,4‑diF‑APPA]
modifications: reading uncertain
B4: Seq. ID. No. 26: H-(APP)-QGTFTSD-Bip(OMe)-(ADMP) (peptide)
peptide: H[Ac5c]QGTFTSD[Bip(2'-Et-4'-OMe)][Nva(5-(3,5-Me2Ph))]
B5: Seq. ID. No. 188: CH3OCO-H-Aib-QG-T(allo)-(α-Me-2F-Phe)-T(allo)-SD-Bip(OMe)-(CH2)-(2F-APPA) (peptide)
peptide: Moc-H[Aib]QG[aThr][αMePhe(2-F)][aThr]SD[Bip(2'-Et-4'-OMe)][2F‑APPA]
modifications: also: reduced (CH2) bond between 10 and 11
B6: Seq. ID. No. 142: H-Aib-(CNB)-G-T(allo)-(α-Me-2F-Phe)-T(allo)-SD-((NMe)Bip(OMe))-((NMe)(APPA)) (peptide)
peptide: H[Aib][CNB]G[aThr][αMePhe(2-F)][aThr]SD[NMeBip(OMe)][NMeAPPA]
modifications: reading uncertain
B7: Seq. ID. No. 189: H-Aib-QG-T(allo)-(α-Me-2F-Phe)-T(allo)-SD-Bip(OMe)-(CH2)-(APPA) (peptide)
peptide: H[Aib]QG[aThr][αMePhe(2-F)][aThr]SD[Bip(2'-Et-4'-OMe)][hhPhe]
modifications: also: reduced (CH2) bond between 10 and 11
B8: Seq. ID. No. 195: CH3CO-H-Aib-QGT-(α-Me-2F-Phe)-TSD-(CH2)-Bip(OMe)-(CH2)-(2F-APPA) (peptide)
peptide: Ac-H[Aib]QGT[αMePhe(2-F)]TSD[Bip(2'-Et-4'-OMe)][2F‑APPA]
modifications: also: reduced (CH2) bonds between 9-10 and 10-11
B9: Seq. ID. No. 49: HSQGTFTSD-Bip(OMe)-(2F, 4CF3-APPA) (peptide)
peptide: HSQGTFTSD[Bip(2'-Et-4'-OMe)][2F,4CF3‑APPA]
B10: Seq. ID. No. 191: H-Aib-QG-T(allo)-(α-Me-2F-Phe)-T(allo)-SD-Bip(OMe)-(CH2)-(2F-APPA) (peptide)
peptide: H[Aib]QG[aThr][αMePhe(2-F)][aThr]SD[Bip(2'-Et-4'-OMe)][2F‑APPA]
modifications: also: reduced (CH2) bond between 10 and 11
B11: Seq. ID. No. 65: H-Aib-QGTFTSD-Bip(OMe)-(2F,4CF3-APPA) (peptide)
peptide: H[Aib]QGTFTSD[Bip(2'-Et-4'-OMe)][2F,4CF3‑APPA]

Starred links: 1 amine or outer side, 2 acyl side, 3 side chain; linkers in the order of their positions; H or OH if unused. Non-standard residues stand in square brackets, D forms with d. No end group written: not given here. *: point of attachment. NMe2F‑APPA = N-methyl-2-amino-5-(2-fluorophenyl)pentanoic acid, CN([C@@H](CCCc1ccccc1F)C(=O)[*:2])[*:1]; 2,4‑diF‑APPA = 2-amino-5-(2,4-difluorophenyl)pentanoic acid, O=C([C@H](CCCc1ccc(F)cc1F)N[*:1])[*:2]; 2F,4CF3‑APPA = 2-amino-5-(2-fluoro-4-(trifluoromethyl)phenyl)pentanoic acid; Bip(2'-Et-4'-OMe) = CCc1cc(OC)ccc1-c1ccc(C[C@H](N)C(=O)O)cc1; Nva(5-(3,5-Me2Ph)) = Cc1cc(C)cc(CCC[C@H](N)C(=O)O)c1; 2F‑APPA = 2-amino-5-(2-fluorophenyl)pentanoic acid; αMePhe(2-F) = C[C@](N)(Cc1ccccc1F)C(=O)O; NMeBip(OMe) = N-methylated Bip(OMe); hhPhe = N[C@@H](CCCc1ccccc1)C(=O)O; aThr = C[C@H](O)[C@H](N)C(=O)O; NMeAPPA = not defined here; Ac5c = NC1(C(=O)O)CCCC1; CNB = not defined here; Aib = CC(C)(N)C(=O)O; Moc = COC(=O)*

The target of the assay is human glucagon receptor (human, UniProt P47871 26-477). The assay is described as follows: cell-based or functional assay.
Consider B1, for which the “inhibition of cAMP production, 1 nM” value came to 6 pmol/ml/µg prt; the “inhibition of cAMP production, 10 nM” value was determined as 5 pmol/ml/µg prt; the “inhibition of cAMP production, 100 nM” value came out at 3 pmol/ml/µg prt; the “inhibition of cAMP production, 1 µM” value was 0 pmol/ml/µg prt. For the same molecule, the “inhibition of cAMP production, 10 µM” value turned out to be 0 pmol/ml/µg prt.
Take B2: the “inhibition of cAMP production, 1 nM” value amounted to 15 pmol/ml/µg prt; the “inhibition of cAMP production, 10 nM” value came to 12 pmol/ml/µg prt; the “inhibition of cAMP production, 100 nM” value was found to be 8 pmol/ml/µg prt; the “inhibition of cAMP production, 1 µM” value is 4 pmol/ml/µg prt. The “inhibition of cAMP production, 10 µM” value came out at 2 pmol/ml/µg prt.
B3: the “inhibition of cAMP production, 1 nM” value was 22 pmol/ml/µg prt; the “inhibition of cAMP production, 10 nM” value was found to be 21 pmol/ml/µg prt; the “inhibition of cAMP production, 100 nM” value worked out at 20 pmol/ml/µg prt; the “inhibition of cAMP production, 1 µM” value was 18 pmol/ml/µg prt. Besides, the “inhibition of cAMP production, 10 µM” value was 18 pmol/ml/µg prt.
Regarding B4, the “inhibition of cAMP production, 1 nM” value was 15 pmol/ml/µg prt; the “inhibition of cAMP production, 10 nM” value was 12 pmol/ml/µg prt; the “inhibition of cAMP production, 100 nM” value came out at 8 pmol/ml/µg prt; the “inhibition of cAMP production, 1 µM” value amounted to 4 pmol/ml/µg prt. For the same molecule, the “inhibition of cAMP production, 10 µM” value was 2 pmol/ml/µg prt.
Take B5: the “inhibition of cAMP production, 1 nM” value turned out to be 5 pmol/ml/µg prt; the “inhibition of cAMP production, 10 nM” value amounted to 3 pmol/ml/µg prt; the “inhibition of cAMP production, 100 nM” value worked out at 1 pmol/ml/µg prt; the “inhibition of cAMP production, 1 µM” value came to 0 pmol/ml/µg prt. The “inhibition of cAMP production, 10 µM” value turned out to be 0 pmol/ml/µg prt.
As for B6, the “inhibition of cAMP production, 1 nM” value was 10 pmol/ml/µg prt; the “inhibition of cAMP production, 10 nM” value came to 8 pmol/ml/µg prt; the “inhibition of cAMP production, 100 nM” value is 6 pmol/ml/µg prt; the “inhibition of cAMP production, 1 µM” value was 2 pmol/ml/µg prt. Moreover, the “inhibition of cAMP production, 10 µM” value was 0 pmol/ml/µg prt.
Regarding B7, the “inhibition of cAMP production, 1 nM” value is 3 pmol/ml/µg prt; the “inhibition of cAMP production, 10 nM” value was found to be 1 pmol/ml/µg prt; the “inhibition of cAMP production, 100 nM” value is 0 pmol/ml/µg prt; the “inhibition of cAMP production, 1 µM” value was found to be 0 pmol/ml/µg prt. The “inhibition of cAMP production, 10 µM” value was 0 pmol/ml/µg prt.
Consider B8, for which the “inhibition of cAMP production, 1 nM” value came to 15 pmol/ml/µg prt; the “inhibition of cAMP production, 10 nM” value stood at 12 pmol/ml/µg prt; the “inhibition of cAMP production, 100 nM” value is 8 pmol/ml/µg prt; the “inhibition of cAMP production, 1 µM” value turned out to be 4 pmol/ml/µg prt. For the same molecule, the “inhibition of cAMP production, 10 µM” value was 2 pmol/ml/µg prt.
Taken in the same sequence, the figures for B9 were 10 pmol/ml/µg prt, 8 pmol/ml/µg prt, 6 pmol/ml/µg prt, 2 pmol/ml/µg prt and 0 pmol/ml/µg prt.
Taken in the same sequence, the figures for B10 were 4 pmol/ml/µg prt, 2 pmol/ml/µg prt, 2 pmol/ml/µg prt, 0 pmol/ml/µg prt and 0 pmol/ml/µg prt.
Regarding B11, the “inhibition of cAMP production, 1 nM” value worked out at 10 pmol/ml/µg prt; the “inhibition of cAMP production, 10 nM” value turned out to be 8 pmol/ml/µg prt; the “inhibition of cAMP production, 100 nM” value worked out at 6 pmol/ml/µg prt; the “inhibition of cAMP production, 1 µM” value worked out at 4 pmol/ml/µg prt. For the same molecule, the “inhibition of cAMP production, 10 µM” value was found to be 1 pmol/ml/µg prt.
